In article PMC6264893 (Nature, 2018):

Biological target: His6-tagged 13C,15N-H1 (human, UniProt P07305 1-194)
Assay: NMR titration

His6-tagged 13C,15N-H1, sequence (P07305 whole entry): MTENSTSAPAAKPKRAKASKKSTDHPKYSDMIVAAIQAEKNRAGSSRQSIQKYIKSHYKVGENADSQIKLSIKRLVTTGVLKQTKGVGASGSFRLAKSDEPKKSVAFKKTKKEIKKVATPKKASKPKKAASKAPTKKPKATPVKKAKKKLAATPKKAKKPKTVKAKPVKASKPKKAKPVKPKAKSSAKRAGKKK

B1: prothymosin α (unlabeled, wildtype) (natural protein, human, UniProt P06454 1-111, looked up)
chain: MSDAAVDTSSEITTKDLKEKKEVVEEAENGRDAPANGNAENEENGEQEADNEVDEEEEEGGEEEEEEEEGDGEEEDGDEDEEAESATGKRAAEDDEDDDVDTKKQKTDEDD
  stoichiometry N: 1
